From patent US20200222503A1
Values belong to the substance of their own block, whether it stands above or below them.

How the values were obtained:
[1] = target: FcRn; assay: SPR
[2] = target: FcγR1A; assay: SPR
[3] = target: FcRn-His (Example 11) (Mus musculus (Mouse)) (UniProt Q61559); assay: SPR, BioRad ProteOn XPR 360, His-tagged target on chip
[4] = target: OX40-His (Example 11) (Mus musculus (Mouse)) (UniProt P47741); assay: as above
[5] = target: PD-L2-His (Example 11) (Mus musculus (Mouse)) (UniProt Q9WUL5); assay: as above
PD-L2-His (Example 11) (Mus musculus (Mouse)), sequence (Q9WUL5 20-221 limits assumed, form in doubt): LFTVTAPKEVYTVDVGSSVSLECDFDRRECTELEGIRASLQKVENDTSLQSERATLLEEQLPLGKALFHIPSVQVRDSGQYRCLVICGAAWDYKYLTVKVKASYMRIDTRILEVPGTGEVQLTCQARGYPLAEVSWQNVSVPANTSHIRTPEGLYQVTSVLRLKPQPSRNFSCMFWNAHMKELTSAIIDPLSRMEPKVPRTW

[6] = target: mPD-L1-His (murine) (UniProt Q9EP73); assay: as above
mPD-L1-His (murine), sequence (Q9EP73 19-238 limits assumed): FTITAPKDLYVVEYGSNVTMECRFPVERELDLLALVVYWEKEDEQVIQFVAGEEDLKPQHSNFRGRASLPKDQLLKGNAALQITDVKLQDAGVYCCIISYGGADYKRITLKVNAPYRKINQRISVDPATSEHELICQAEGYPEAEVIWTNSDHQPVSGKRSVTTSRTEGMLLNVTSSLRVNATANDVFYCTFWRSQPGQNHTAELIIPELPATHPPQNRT

OX40L-Fc (recombinant control protein, Example 11) (Fc fusion), sequence (P43488 51-198): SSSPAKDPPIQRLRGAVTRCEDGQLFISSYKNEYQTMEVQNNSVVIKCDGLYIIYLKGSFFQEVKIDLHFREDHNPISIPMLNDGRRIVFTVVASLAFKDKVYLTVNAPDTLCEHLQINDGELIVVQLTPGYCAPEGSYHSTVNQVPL
PD1-Fc (recombinant control protein, Example 11) (Fc fusion), sequence (Q02242 25-169): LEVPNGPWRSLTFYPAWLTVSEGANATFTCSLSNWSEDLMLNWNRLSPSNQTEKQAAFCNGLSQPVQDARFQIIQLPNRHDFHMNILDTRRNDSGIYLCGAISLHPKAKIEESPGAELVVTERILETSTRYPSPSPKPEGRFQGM
OX40-His (Example 11) (Mus musculus (Mouse)), sequence (P47741 20-211 limits assumed, form in doubt): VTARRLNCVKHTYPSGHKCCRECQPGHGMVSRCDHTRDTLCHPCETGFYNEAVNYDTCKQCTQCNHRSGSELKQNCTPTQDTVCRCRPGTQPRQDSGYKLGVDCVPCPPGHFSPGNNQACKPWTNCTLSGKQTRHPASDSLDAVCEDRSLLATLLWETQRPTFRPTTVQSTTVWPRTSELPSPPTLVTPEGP

Kd [1]: 4.87 nM
Kd [2]: 17.7 nM
Substance: IgG1

Kd [3]: 8.08 nM
koff [3]: 0.0242 s⁻¹
kon [3]: 3e+06 M⁻¹ s⁻¹
Substance: IgG2A (control protein, Example 11) (antibody)

Kd [4]: 1.06 nM
koff [4]: 0.000712 s⁻¹
kon [4]: 674000 M⁻¹ s⁻¹
Substance: OX40L-Fc (recombinant control protein, Example 11) (Fc fusion)

Kd [5]: 23.1 nM
koff [5]: 0.00171 s⁻¹
kon [5]: 47900 M⁻¹ s⁻¹
Kd [6]: 33.3 nM
koff [6]: 0.00108 s⁻¹
kon [6]: 32400 M⁻¹ s⁻¹
Substance: PD1-Fc (recombinant control protein, Example 11) (Fc fusion)
